Assay results reported in paper PMC6363758, “Zinc regulates ERp44-dependent protein quality control in the early secretory pathway” (Nature Communications, 2019).

What was measured:
[1] = biological target: T1, Ero1α Cys104/Cys131Cys166Ala mutant (recombinant) (UniProt Q96HE7 24-468, Cys104/Cys131Cys166Ala | Cys104/Cys131Cys166Ala | Cys104/Cys131Cys166Ala); experiment: ITC; 420 µM Ero1α injected into 30 µM ERp44 WT, no Zn2+; 20 mM BisTris-HCl pH 6.2, 150 mM NaCl, 283 K; conditions: both partners purified
T1 construct: Ero1α with Cys104, Cys131 and Cys166 replaced by Ala; used in all the in vitro experiments
T1 sequence (looked up): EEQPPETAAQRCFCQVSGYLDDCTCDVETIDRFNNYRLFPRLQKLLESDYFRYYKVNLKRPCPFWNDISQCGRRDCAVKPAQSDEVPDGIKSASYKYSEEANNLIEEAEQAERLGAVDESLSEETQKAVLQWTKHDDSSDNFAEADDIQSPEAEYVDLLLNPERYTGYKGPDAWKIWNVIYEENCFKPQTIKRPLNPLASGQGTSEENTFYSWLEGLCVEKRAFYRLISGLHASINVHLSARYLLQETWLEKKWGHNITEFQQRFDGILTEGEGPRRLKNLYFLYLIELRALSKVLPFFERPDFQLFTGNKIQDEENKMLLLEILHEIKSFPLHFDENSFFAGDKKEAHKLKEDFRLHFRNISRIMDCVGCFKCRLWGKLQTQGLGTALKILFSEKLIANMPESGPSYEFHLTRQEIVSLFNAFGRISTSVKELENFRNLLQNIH

[2] = biological target: T1, Ero1α Cys104/Cys131Cys166Ala mutant …; experiment: ITC; 200 µM ERp44 injected into 15 µM Ero1α and 15 µM ZnCl2; 20 mM BisTris-HCl pH 6.2, 150 mM NaCl, 283 K; conditions: both partners purified

B1: ERp44 WT (recombinant) (natural protein)
chain: EITSLDTENIDEILNNADVALVNFYADWCRFSQMLHPIFEEASDVIKEEFPNENQVVFARVDCDQHSDIAQRYRISKYPTLKLFRNGMMMKREYRGQRSVKALADYIRQQKSDPIQEIRDLAEITTLDRSKRNIIGYFEQKDSDNYRVFERVANILHDDCAFLSAFGDVSKPERYSGDNIIYKPPGHSAPDMVYLGAMTNFDVTYNWIQDKCVPLVREITFENGEELTEEGLPFLILFHMKEDTESLEIFQNEVARQLISEKGTINFLHADCDKFRHPLLHIQKTPADCPVIAIDSFRHMYVFGDFKDVLIPGKLKQFVFDLHSGKLHREFHHGPDPTDTAPGEQAQDVASSPPESSFQKLAPSEYRYTLLRDRDEL
notes: ERp44, chaperone of the PDI family; Probably the mature protein without its signal peptide (surmise)
In the case of B1, the Kd [1] is reported as 1.31 µM and the Kd [2] is reported as 0.22 µM.
